Measurements published in patent publication US20230212587A1, “Mutant Hydroxyphenylpyruvate Dioxygenase Polypeptide, Encoding Gene Thereof and Use Therefor” (Beijing Dabeinong Biotechnology Co., Ltd., priority 2019, published 2023).

B1: HvHPPDm-F372V: Hordeum vulgare HPPD mutant F372V, SEQ ID NO: 357 (protein)
chain: MPPTPTTPAATGAAAAVTPEHARPHRMVRFNPRSDRFHTLSFHHVEFWCADAASAAGRFAFALGAPLAARSDLSTGNSAHASQLLRSGSLAFLFTAPYANGCDAATASLPSFSADAARRFSADHGIAVRSVALRVADAAEAFRASRRRGARPAFAPVDLGRGFAFAEVELYGDVVLRFVSHPDGTDVPFLPGFEGVTNPDAVDYGLTRFDHVVGNVPELAPAAAYIAGFTGFHEFAEFTAEDVGTTESGLNSVVLANNSEGVLLPLNEPVHGTKRRSQIQTFLEHHGGPGVQHIAVASSDVLRTLRKMRARSAMGGFDFLPPPLPKYYEGVRRLAGDVLSEAQIKECQELGVLVDRDDQGVLLQIVTKPVGDRPTLFLEMIQRIGCMEKDERGEEYQKGGCGGFGKGNFSELFKSIEDYEKSLEAKQSAAVQGS
modifications: HvHPPDm-F372V Amino Acid Sequence
B2: SiHPPDm-F372V: Setaria italica HPPD mutant F372V, SEQ ID NO: 359 (protein)
chain: MPPTPTPAAAAPGAAAAPAAGDQAAFRLVGHRGFVRVNPRSDRFHTLSFHHVELWCADATSAAGRFSFGLGAPLAARSDLSTGNSAHASLLLRSGSLAFLFTAPYAHGVDAATASLPSFSAPAARSFAADHGLAVRAIGLRVADAEDAFRASVAAGARPAFKPVELGLGFRLAEVELYGDVVLRYVSYPDAEDAPFLPGFENVNNPGALNYGLRRFDHIVGNVPELAPVAAYVAGFTGFHEFAEFTAEDVGTAESGLNSMVLANNSETVLIPLNEPVHGTKRRSQIQTFLDHNGGPGVQHIALASDDVLRTLREMQARSAMGGFEFMAAPPPDYYEGVRRRAGDVLSEAQIKECQELGVLVDRDDQGVLLQIVTKPVGDRQTLFLEIIQRIGCMEKDEQGQEYQKGGCGGFGKGNFSQLFKSIEDYEKSLESKQAAAVQGS
modifications: SiHPPDm-F372V Amino Acid Sequence
B3: SbHPPDm-F372V: Sorghum bicolor HPPD mutant F372V, SEQ ID NO: 361 (protein)
chain: MPPTPTTAAATGAAVAAASAEQAAFRLVGHRNFVRVNPRSDRFHTLAFHHVELWCADAASAAGRFSFGLGAPLAARSDLSTGNTAHASLLLRSGALAFLFTAPYAHGADAATASLPSFSAAEARRFAADHGLAVRAVALRVADAEDAFRASVAAGARPAFEPVELGLGFRLAEVELYGDVVLRYVSYPDDADASFLPGFVGVTSPGAADYGLRRFDHIVGNVPELAPAAAYFAGFTGFHEFAEFTAEDVGTTESGLNSMVLANNAENVLLPLNEPVHGTKRRSQIQTYLDHHGGPGVQHMALASDDVLRTLREMQARSAMGGFEFMAPPAPEYYDGVRRRAGDVLTEAQIKECQELGVLVDRDDQGVLLQIVTKPVGDRPTLFLEIIQRIGCMEKDEKGQEYQKGGCGGFGKGNFSQLFKSIEDYEKSLEAKQAAAAQGS
modifications: SbHPPDm-F372V Amino Acid Sequence
B4: OsHPPDm-F372V: Oryza sativa HPPD mutant F372V, SEQ ID NO: 363 (protein)
chain: MPPTPTPTATTGAVSAAAAAGENAGFRLVGHRRFVRANPRSDRFQALAFHHVELWCADAASAAGRFAFALGAPLAARSDLSTGNSAHASLLLRSASVAFLFTAPYGGDHGVGADAATTASIPSFSPGAARRFAADHGLAVHAVALRVADAADAFRASVAAGARPAFQPADLGGGFGLAEVELYGDVVLRFVSHPDGADAPFLPGFEGVSNPGAVDYGLRRFDHVVGNVPELAPVAAYISGFTGFHEFAEFTAEDVGTAESGLNSVVLANNAETVLLPLNEPVHGTKRRSQIQTYLDHHGGPGVQHIALASDDVLGTLREMRARSAMGGFEFLAPPPPNYYDGVRRRAGDVLSEEQINECQELGVLVDRDDQGVLLQIVTKPVGDRPTFFLEMIQRIGCMEKDESGQEYQKGGCGGFGKGNFSELFKSIEEYEKSLEAKQAPTVQGS
modifications: OsHPPDm-F372V Amino Acid Sequence
B5: AtHPPDm-F372V: Arabidopsis thaliana HPPD mutant F372V, SEQ ID NO: 349 (protein)
chain: MGHQNAAVSENQNHDDGAASSPGFKLVGFSKFVRKNPKSDKFKVKRFHHIEFWCGDATNVARRFSWGLGMRFSAKSDLSTGNMVHASYLLTSGDLRFLFTAPYSPSLSAGEIKPTTTASIPSFDHGSCRSFFSSHGLGVRAVAIEVEDAESAFSISVANGAIPSSPPIVLNEAVTIAEVKLYGDVVLRYVSYKAEDTEKSEFLPGFERVEDASSFPLDYGIRRLDHAVGNVPELGPALTYVAGFTGFHQFAEFTADDVGTAESGLNSAVLASNDEMVLLPINEPVHGTKRKSQIQTYLEHNEGAGLQHLALMSEDIFRTLREMRKRSSIGGFDFMPSPPPTYYQNLKKRVGDVLSDDQIKECEELGILVDRDDQGTLLQIVTKPLGDRPTIFIEIIQRVGCMMKDEEGKAYQSGGCGGFGKGNFSELFKSIEEYEKTLEAKQLVG
modifications: AtHPPDm-F372V Amino Acid Sequence
B6: GmHPPDm-F372V: Glycine max HPPD mutant F372V, SEQ ID NO: 365 (protein)
chain: MPMYTPSLSAPSSNHIQPSVTLPLYITTTKLNLKQQHHTTPMPIPMCNEIQAQAQAQAQPGFKLVGFKNFVRTNPKSDRFQVNRFHHIEFWCTDATNASRRFSWGLGMPIVAKSDLSTGNQIHASYLLRSGDLSFLFSAPYSPSLSAGSSAASSASIPSFDAATCLAFAAKHGFGVRAIALEVADAEAAFSASVAKGAEPASPPVLVDDRTGFAEVRLYGDVVLRYVSYKDAAPQAPHADPSRWFLPGFEAAASSSSFPELDYGIRRLDHAVGNVPELAPAVRYLKGFSGFHEFAEFTAEDVGTSESGLNSVVLANNSETVLLPLNEPVYGTKRKSQIETYLEHNEGAGVQHLALVTHDIFTTLREMRKRSFLGGFEFMPSPPPTYYANLHNRAADVLTVDQIKQCEELGILVDRDDQGTLLQIVTKPVGDRPTIFIEIIQRIGCMVEDEEGKVYQKGACGGFGKGNFSELFKSIEEYEKTLEAKRTA
modifications: GmHPPDm-F372V Amino Acid Sequence
B7: CaHPPDm-F372V: Cicer arietinum HPPD mutant F372V, SEQ ID NO: 367 (protein)
chain: MGTIETQTGFKLVGFNNFVRTNPKSDRFKVKRFHHVEFWCPDATNTARRFSWGLGMPIVAKSDLSTGNQTHASYLLRSGDLNFLFTAAYSPSISLSAPHPTASIPSFSAPTSFAFSASHGLGVRAVAIEVDDAEFAYTTSVNHGAIPSSPPVVLDNRVKLAEVQLYGDVVLRYVSYNDPIETSNPNPNHWFLPGFEPVEETSSNQSIDFGIQRLDHAVGNVPELSSALNYVKQFTGFHEFAEFTAEDVGTSESGLNSTVLANNEETVLLPMNEPVYGTKRKSQIQTYLEHNEGAGLQHLALMSNDIFKTLREMRKRSGIGGFEFMPSPPPTYYSNLKKRVGDVLNDEQIKECEELGILVDKDDQGTLLQIVTKPVGDRPTIFIEIIQRVGCMLKDDEGKEYQKGGCGGFGKGNFSELFKSIEEYEKTLEIKRTA
modifications: CaHPPDm-F372V Amino Acid Sequence
B8: BnHPPDm-F372V: Brassica napus HPPD mutant F372V, SEQ ID NO: 369 (protein)
chain: MGHENAAVCETQQHDDAASPGFKLVGFSKFVRKNPKSDKFKVKRFHHIEFWCGDATNVSRRFSWGLGMRFSAKSDLSTGNMVHASYLLTSGDLRFLFTAPYSPSLSAGEAQPSATASIPSFDHASCRSFFSSHGLGVRAVAIEVEDAESAFSISVANGAVPSSPPNVLNGAVTIAEVKLYGDVVLRYVSYYNGTVSFLPGFESVDDTSSFPLDYGIRRLDHAVGNVPELGPALTYLAGFTGFHQFAEFTADDVGTAESGLNSAVLANNDEMVLLPINEPVHGTKRKSQIQTFLEHNEGAGLQHLALMSEDIFRTLREMRKRSGVGGFDFMPSPPPTYYKNLKKRVGDVLSEEQIEECEELGILVDRDDQGTLLQIVTKPLGDRPTIFIEIIQRVGCMKRDEEGKVYQSGGCGGFGKGNFSELFKSIEEYEKTLEAKQLVG
modifications: BnHPPDm-F372V Amino Acid Sequence
B9: HaHPPDm-F372V: Helianthus annuus HPPD mutant F372V, SEQ ID NO: 371 (protein)
chain: MGTEATVAAVVAGDESDHPTSAFKLVGFKNFIRTNPMSDKFTVKNFHHIEFWCSDATNTARRFSWGLGMPIIFKSDLSTGNSTHASYLLRSGHLNFLFTAPYSPSISPTTTTASIPTFSHSASRHFTATHGLAVRAIAVEVEDAETAFAVSVANGAKPSSPPVTLGHNDVVLSEVKLYGDVVLRYVSYKNNTNNNNNNDNDNYIFLPGFEAMDKTSSFQELDYGIRRLDHAVGNVPELAPAVDYVKSFTGFHEFAEFTAEDVGTSESGLNSVVLACNSEMVLIPMNEPVYGTKRKSQIQTYLEHNEGAGVQHLALASEDIFRTLREMRKRSGVGGFEFMPSPPPTYYRNLKSRAGDVLSDEQIKECEELGILVDRDDQGTLLQIVTKPVGDRPTIFIEIIQRVGCMVKDDEGKVQQKAGCGGFGKGNFSELFKSIEEYEKTLEARSTTAA
modifications: HaHPPDm-F372V Amino Acid Sequence
B10: MsHPPDm-F372V: Medicago sativa HPPD mutant F372V, SEQ ID NO: 373 (protein)
chain: MAIETETQTQTGFKLVGFKNFVRANPKSDRFKVKRFHHVEFWCTDATNTARRFSHGLGMPIVAKSDLSTGNQTHASYLLRSGDLNFLFSAAYSPSISLSSPSSTAAIPTFSASNCFSFSASHGLAVRAVAVEVEDAELAFTTSVNNGAIPSSPPVILENHVKLAEVRLYGDVVLRYVSYNDPNPNQNPNLLFLPGFERVSDESSNSSLDFGIRRLDHAVGNVPELSSAVKYVKDFTGFHEFAEFTAEDVGTSESGLNSVVLANNEETVLLPMNEPVYGTKRKSQIETYLEHNEGAGLQHLALKSEDIFRTLREMRKRSGVGGFEFMPSPPVTYYRNLKNRVGDVLSDEQIKECEELGILVDRDDQGTLLQIVTKPIGDRPTIFIEIIQRVGCMLKDEEGKEYQKGGCGGFGKGNFSELFKSIEEYEKTLETRRTA
modifications: MsHPPDm-F372V Amino Acid Sequence

What follows are molecules tested on Arabidopsis thaliana T1 plants (assay: Topramezone tolerance of transgenic Arabidopsis thaliana T1 plants (pesticide damage grade by bleached leaf area, score, resistance evaluation)). Settings: topramezone 25 g ai/ha (1x); HPPD F372V mutants, Table 7.
Type: in vivo
Summary of the method: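 Eighteen days after sowing, wild-type and HPPD-transgenic T1 Arabidopsis receive a topramezone spray at 1×, 2× or 4× field rate (25–100 g ai/ha) or water. Seven days later each plant is graded by its proportion of bleached leaf area.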

| Molecule | Resistance evaluation |
| --- | --- |
| B1 | Highly resistant |
| B2 | Moderately resistant |
| B3 | Poorly resistant |
| B4 | Moderately resistant |
| B5 | Poorly resistant |
| B6 | Poorly resistant |
| B7 | Poorly resistant |
| B8 | Poorly resistant |
| B9 | Poorly resistant |
| B10 | Poorly resistant |

Same assay, conditions: topramezone 100 g ai/ha (4x); HPPD F372V mutants, Table 7

| Molecule | Resistance evaluation |
| --- | --- |
| B1 | Poorly resistant |
| B2 | Poorly resistant |
| B3 | Non-resistant |
| B4 | Non-resistant |
| B5 | Non-resistant |
| B6 | Non-resistant |
| B7 | Non-resistant |
| B8 | Non-resistant |
| B9 | Non-resistant |
| B10 | Non-resistant |
